Experimental findings from patent US20250136650A1, “COMPOSITIONS AND METHODS FOR DNA BINDING AND TRANSCRIPTIONAL REGULATION” (THE UNIVERSITY OF CHICAGO, priority 2021, published 2025) are described below.

Residue numbers refer to the chain shown, from its start. Entries after “also recorded” stand apart in the source; their conditions may differ. *1 amine or outer side, *2 acyl side, *3 side chain or, on linkers, in order; H or OH if unused. Bridges are numbered along the chain shown (N, C = ends). Roman numbers before positions name the chains, in order. [ ]: non-standard residue; d: D form. X1 = O=C1CC([*:1])C(=O)N1CC(=O)[*:2]; S5 = C=CCCC[C@](C)(N)C(=O)O

Data set [1] concerns T1, STR22 (XBP1-derived stapled bZIP dimer) (synthetic (human XBP1)).
T1 sequence 1: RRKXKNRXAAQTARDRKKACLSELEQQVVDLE
T1 sequence 2: T1 sequence 1 with C20R, E25X
The data set can be described thus: competition. The note with it: EMSA competition with unlabeled UPRE against 5 nM labeled UPRE. A general note: In EMSA bound probe runs differently from free probe, usually more slowly.

Data set [2] has as its system FJSTR72 (Fos/Jun-derived stapled bZIP dimer) (synthetic (human c-Fos/c-Jun)). The data set can be described thus: EMSA.
Data set [3] has as its system T1, STR22 (XBP1-derived stapled bZIP dimer) (synthetic (human XBP1)). The data set can be described thus: cell_activity. The note with it: +/-3.5; inhibition of XBP1s-induced luciferase in HeLa, 24 h.
Data set [4] has as its target T2, STR4 (XBP1-derived unstapled bZIP dimer, Met-to-Leu) (synthetic (human XBP1)) (UniProt P17861+P17861).
T2 sequence 1: T1 sequence 1 with X4L, X8V
T2 sequence 2: T1 sequence 1 with X4L, X8V, C20R, E25X
The data set can be described thus: EMSA. The note with it: 20 mM HEPES pH 8.0, 150 mM NaCl, 2 mM MgCl2, RT 1 h.

The test system of data set [5] is T1, STR22 (XBP1-derived stapled bZIP dimer) (synthetic (human XBP1)). The data set can be described thus: EMSA. The note with it: 20 mM HEPES pH 8.0, 150 mM NaCl, 2 mM MgCl2, RT 1 h; 14.17 nM reported in Example 4 (FIG. 2).
A further data set deals with AP-1 site. The data set can be described thus: EMSA, direct binding to AP-1 DNA probe. From the text:
The DNA binding dimer STR22 (shown in FIG. 21 and FIG. 27) was synthesized. STR22 was subjected to EMSA to measure binding to either the UPR element (UPRE) or AP-1 binding site (AP-1).
(§1) bZIP transcriptional repressors FJSTR7 (shown in FIGS. 42 and 45), FJSTR71 (shown in FIGS. 52 and 53), and FJSTR72 (shown in FIGS. 52 and 54), were generated and tested.
Electrophoretic Mobility Shift Assays (EMSAs): For direct DNA binding experiments, STRs were serially diluted at 10× concentration in water and then 1 μL of STR solution was added to 9 μL of 5 nM IRD700-labeled DNA probe bearing either a UPRE or AP-1 motif in a final 1×binding buffer (20 mM HEPES pH 8.0, 150 mM NaCl, 5% glycerol, 1 mM EDTA, 2 mM MgCl2, 0.5 mg/mL BSA, 1 mM DTT, 0.05% NP-40). Samples were incubated for 1 hr at RT. 5 μL of each reaction was loaded on an 8% acrylamide, 0.5×TBE gel equilibrated to 4° C. Samples were resolved for 60 min at 110 V and 4° C. with 0.5×TBE+1 mM MgCl2 running buffer. Gels were pre-run at 110 V for 15 min prior to sample loading. For competition experiments, 30 or 60 nM STRs and 5 nM labeled UPRE probe were incubated with 0, 7.8, 13, 21.6, 36, 60 or 100 nM unlabeled competitor oligo for 1 hr at RT. […] ImageJ was used to quantify band intensity and the fraction of bound DNA was calculated by dividing the band intensity of bound DNA by the band intensity of free DNA from the vehicle treated lane. […]

The next data set has as its system cells. Nature of the data set: Fluorescent microscopy of cell penetration by FJSTRs. The format is cell-based. As to conditions: FJSTR7 and FJSTR72 at 5 μM, FJSTR71 at 2 μM.
Text: as §1

The subject of the next data set is MC38 tumors. Nature of the data set: Subcutaneous MC38 tumor model. The format is in vivo. As to conditions: MC38-bearing mouse, intratumoral.
For the next data set, the system named is Ebox site. The data set can be described thus: EMSA, binding to Ebox site.
Text: as §1

For orientation: Ki means the equilibrium dissociation constant of an inhibitor or competing ligand from its target. Turning to “TGACGTGG (double strand) [UPRE consensus competitor (unlabeled)]”, the Ki in data set [1] stood at 28.6 nM.
What is called Kd is a measure of binding affinity in units of concentration. A low value points to a tighter complex. As for AP-1 site probe (FJSTR), the Kd in [2] was determined as 12 nM.
As a reminder, the IC50 is the point on the concentration scale where inhibition reaches its midpoint. The low end stands for greater potency in that assay, the high end for weaker potency in that assay. 3xUPRE luciferase reporter: in [3], the IC50 was determined as 7.4 µM.
Consider “TGACGTGG (double strand) [UPRE consensus probe]”, for which the Kd in data set [4] worked out at 49 nM; in data set [5], 11 nM.
“I: Ac-IRRERNKMAAAKSRNRRRECI[S5]ELQ[S5]EIEQLE-NH2 / II: Ac-RKRMRNRIAASKSRKRKLERI[S5]RLK[S5]KIKTLK-NH2 (linker I:20-II:25 via X1; staple (Z) I:22-I:26, II:22-II:26) [FJSTR72]”: the Kd at AP-1 site amounted to 12 nM. Further, the penetration of cells result in the data set with cells is “penetration; also recorded: capable of entering cells”. The tumor growth entry in the data set with MC38 tumors is given as “reduces tumor growth”. For the same substance, the “binding to Ebox site” value in the data set on Ebox site is “does not bind to the Ebox site”.
